A short description of this data set: in vivo. The source says: Dexamethasone alone has low water solubility. […] A secondary objective was to measure free Dex levels in knee joints.
All samples were collected at euthanasia. Free Dex was extracted from plasma samples and quantified by LC/MS. […] To measure the total Dex concentration (free Dex released in vivo+Dex associated with intact peptide-drug conjugate) in plasma of rats treated with Peptide(SEQ ID NO: 105)-DMA-Dex, a separate plasma sample was subjected to forced hydrolysis followed by extraction of free Dex. Dexamethasone extraction was achieved by acetonitrile precipitation from plasma samples. The forced hydrolysis protocol involved addition of 10 U porcine esterase to the plasma and incubation for 22 h at 37° C. Total white blood cell counts, absolute lymphocyte counts, and thymus and spleen weights were measured to assess systemic markers of Dex exposure over the time-course.
In order to quantify the concentration of free Dex in knee joints, knee joints were harvested, the joint capsule was opened, and the knee joints were then shaken in ethyl acetate for 12 h at 4° C. The extract was centrifuged and the supernatant was dried under nitrogen in a 96 well plate. The samples were then reconstituted and analyzed by LC/MS using the same protocol developed for quantifying free Dex in plasma.
An indirect estimate of intact peptide-drug conjugate concentration at each time-point can be made by subtracting the free Dex concentration (from direct extraction) from the total Dex concentration (from forced hydrolysis). […] Systemic exposure to Dex was assessed by multiple parameters: total white blood cell (WBC) count; absolute lymphocyte count; thymus weight; and spleen weight (FIG. 15).

Setting [1] is: any time-point to 24 h, single IV dose 0.2 mg/kg.

Positions of bridges follow the written chain, without caps; N, C: chain ends. Residues, ends and D or L forms follow the SMILES beside them. *: point of attachment. X1 = CC(CCC(C)C(=O)*)C(=O)OCC(=O)[C@@]1(O)[C@H](C)C[C@H]2[C@@H]3CCC4=CC(=O)C=C[C@]4(C)[C@@]3(F)[C@@H](O)C[C@@]21C

By half-life is commonly meant the time in which the quantity being followed falls by half. Higher therefore signals slow decline.

On to `CC[C@H](C)[C@@H]1NC(=O)[C@@H]2CSSC[C@H](NC(=O)[C@H](CCCNC(=N)N)NC(=O)[C@@H](NC(=O)[C@H](CC(N)=O)NC(=O)[C@@H](NC(=O)[C@@H]3CCCN3C(=O)[C@@H](NC(=O)CNC(=O)[C@H](CO)NC(=O)CNC(=O)C(C)CCC(C)C(=O)OCC(=O)[C@@]3(O)[C@H](C)C[C@H]4[C@@H]5CCC6=CC(=O)C=C[C@]6(C)[C@@]5(F)[C@@H](O)C[C@@]43C)C(C)C)[C@@H](C)CC)C(C)C)C(=O)N[C@@H](CCCNC(=N)N)C(=O)NCC(=O)N[C@@H](CO)C(=O)N[C@@H](CCCNC(=N)N)C(=O)N[C@@H](CC(=O)O)C(=O)N[C@H]3CSSC[C@H](NC(=O)[C@H](CCCNC(=N)N)NC(=O)[C@H](CO)NC(=O)[C@H](CC(N)=O)NC1=O)C(=O)N[C@@H](Cc1c[nH]cn1)C(=O)N[C@H](C(=O)N[C@H](C(=O)N1CCC[C@H]1C(=O)O)[C@@H](C)O)CSSC[C@H](NC(=O)[C@@H]1CCCN1C(=O)[C@H](CC(=O)O)NC(=O)[C@H](CC(C)C)NC3=O)C(=O)N[C@@H](CCCNC(=N)N)C(=O)N[C@@H](CCCNC(=N)N)C(=O)N[C@@H](C)C(=O)NCC(=O)N[C@@H](CCSC)C(=O)N[C@@H](CCCNC(=N)N)C(=O)N[C@@H](Cc1ccccc1)C(=O)NCC(=O)N[C@@H](CCCNC(=N)N)C(=O)N2` (stereo partly drawn) [Compound 27, peptide(SEQ ID NO: 105)-[dimethyladipic acid]-Dex] (X1-GSGVPINVRCRGSRDCLDPCRRAGMRFGRCINSRCHCTP-OH; disulfide 10-30, 16-35, 20-37 (inferred); C-terminus assumed), for which the “WBC and lymphocyte cell counts as compared to DexSP” value (2 h after single IV dose 0.2 mg/kg) is given as “higher”. In addition, under “12 h after single IV dose 0.2 mg/kg”, the “lymphocyte counts as compared to DexSP” value is given as “lower”. Further, under setting [1], the “Thymus weight, difference between DexSP and conjugate” value was “not significantly different”; the “spleen weight, difference between DexSP and conjugate” value was “not significantly different”. The half-life (female, Lewis, rat, in vivo, iv, 0.2 mg/kg) was about 1.5 h. Besides, the “detectability of intact peptide-drug conjugate in plasma” value (plasma, total Dex minus free Dex, single IV dose 0.2 mg/kg) is reported as “not detectable after 6 h”.

Source of the values: patent US20210252159A1, “CONJUGATES OF CARTILAGE-HOMING PEPTIDES” (priority 2018, published 2021).
